EP2506881B1

B1: humanized RS7 anti-Trop-2 antibody (hRS7 IgG) (antibody, INN chains, looked up, V domains shown)
VH: QVQLQQSGSELKKPGASVKVSCKASGYTFTNYGMNWVKQAPGQGLKWMGWINTYTGEPTYTDDFKGRFAFSLDTSVSTAYLQISSLKADDTAVYFCARGGFGSSYWYFDVWGQGSLVTVSS
VL: DIQLTQSPSSLSASVGDRVSITCKASQDVSIAVAWYQQKPGKAPKLLIYSASYRYTGVPDRFSGSGSGTDFTLTISSLQPEDFAVYYCQQHYITPLTFGAGTKVEIK
modifications: IgG

Columns and labels:
Trop-2 (human) [1] = target: Trop-2 (human) (UniProt P09758); assay: cell-based or functional assay
Trop-2 (human) [2] = target: Trop-2 (human) (UniProt P09758); assay: ELISA on Trop-2-expressing cell lines PC-3 and Calu-3, apparent KD
Trop-2 (human) [3] = target: Trop-2 (human) (UniProt P09758); assay: ELISA on Trop-2-expressing cell lines PC-3 and Calu-3

Chain of UniProt P09758 (P09758 27-323): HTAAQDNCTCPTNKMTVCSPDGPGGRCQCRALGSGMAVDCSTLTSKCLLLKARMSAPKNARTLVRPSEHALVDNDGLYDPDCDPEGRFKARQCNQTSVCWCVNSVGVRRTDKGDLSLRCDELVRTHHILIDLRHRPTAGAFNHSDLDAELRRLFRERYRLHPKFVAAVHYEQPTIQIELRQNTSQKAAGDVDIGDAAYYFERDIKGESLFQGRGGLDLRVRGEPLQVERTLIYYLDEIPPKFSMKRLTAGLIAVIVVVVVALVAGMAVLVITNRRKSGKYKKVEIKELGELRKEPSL

Molecule | EC50, MTS cell proliferation assay, Calu-3 cells (Trop-2 (human) [1]) | EC50, MTS cell proliferation assay, MDA-MB-468 cells (Trop-2 (human) [1]) | EC50, MTS cell proliferation assay, ME-180 cells (Trop-2 (human) [1]) | EC50, MTS cell proliferation assay, T-47D cells (Trop-2 (human) [1]) | Kd (Trop-2 (human) [2]) | fold of apparent KD against hRS7 (Trop-2 (human) [3])
2L-Rap(Q)-hRS7 (from UniProt P22069 1-104) | 8.5 nM | 3.8 nM | 1.5 nM | 2 nM | 0.28 nM | 2 fold
B1 |  |  |  |  | 0.14 nM | 
